From paper PMC2196189 (The Journal of Cell Biology, 2001)

Key:
GST–Nup60p = GST–Nup60p (S. cerevisiae, UniProt P39705 1-539); test: pull-down
Kap95p (recombinant) = biological target: T1, Kap95p (recombinant) (S. cerevisiae, UniProt Q06142 1-861); test: pull-down
T1 sequence (looked up): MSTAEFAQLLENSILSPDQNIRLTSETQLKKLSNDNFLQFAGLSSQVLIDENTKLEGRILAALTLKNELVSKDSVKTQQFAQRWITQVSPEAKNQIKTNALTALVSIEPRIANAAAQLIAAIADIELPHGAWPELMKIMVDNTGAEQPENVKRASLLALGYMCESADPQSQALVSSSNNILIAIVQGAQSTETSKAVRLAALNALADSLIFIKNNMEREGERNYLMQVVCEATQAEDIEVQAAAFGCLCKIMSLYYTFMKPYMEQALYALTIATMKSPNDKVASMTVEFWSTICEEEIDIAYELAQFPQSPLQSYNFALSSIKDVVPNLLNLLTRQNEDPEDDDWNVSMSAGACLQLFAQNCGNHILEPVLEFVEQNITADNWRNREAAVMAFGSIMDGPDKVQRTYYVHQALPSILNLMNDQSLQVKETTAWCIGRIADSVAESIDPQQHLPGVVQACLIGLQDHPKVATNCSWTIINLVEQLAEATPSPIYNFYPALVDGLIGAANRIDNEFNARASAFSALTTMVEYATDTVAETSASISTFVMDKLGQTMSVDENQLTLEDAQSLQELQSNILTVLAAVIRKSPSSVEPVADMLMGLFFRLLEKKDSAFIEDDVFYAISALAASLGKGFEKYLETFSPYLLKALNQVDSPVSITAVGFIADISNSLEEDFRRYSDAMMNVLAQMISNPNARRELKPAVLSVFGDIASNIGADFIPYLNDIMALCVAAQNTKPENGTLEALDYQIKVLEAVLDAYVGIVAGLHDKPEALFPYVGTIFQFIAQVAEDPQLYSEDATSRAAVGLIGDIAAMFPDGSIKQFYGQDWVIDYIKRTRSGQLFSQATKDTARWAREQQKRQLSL

[1] = biological target: T2, Kap95p–Kap60p heterodimers (recombinant) (S. cerevisiae, UniProt Q06142 1-861; Q02821 1-542); test: pull-down
T2 sequence (looked up) 1: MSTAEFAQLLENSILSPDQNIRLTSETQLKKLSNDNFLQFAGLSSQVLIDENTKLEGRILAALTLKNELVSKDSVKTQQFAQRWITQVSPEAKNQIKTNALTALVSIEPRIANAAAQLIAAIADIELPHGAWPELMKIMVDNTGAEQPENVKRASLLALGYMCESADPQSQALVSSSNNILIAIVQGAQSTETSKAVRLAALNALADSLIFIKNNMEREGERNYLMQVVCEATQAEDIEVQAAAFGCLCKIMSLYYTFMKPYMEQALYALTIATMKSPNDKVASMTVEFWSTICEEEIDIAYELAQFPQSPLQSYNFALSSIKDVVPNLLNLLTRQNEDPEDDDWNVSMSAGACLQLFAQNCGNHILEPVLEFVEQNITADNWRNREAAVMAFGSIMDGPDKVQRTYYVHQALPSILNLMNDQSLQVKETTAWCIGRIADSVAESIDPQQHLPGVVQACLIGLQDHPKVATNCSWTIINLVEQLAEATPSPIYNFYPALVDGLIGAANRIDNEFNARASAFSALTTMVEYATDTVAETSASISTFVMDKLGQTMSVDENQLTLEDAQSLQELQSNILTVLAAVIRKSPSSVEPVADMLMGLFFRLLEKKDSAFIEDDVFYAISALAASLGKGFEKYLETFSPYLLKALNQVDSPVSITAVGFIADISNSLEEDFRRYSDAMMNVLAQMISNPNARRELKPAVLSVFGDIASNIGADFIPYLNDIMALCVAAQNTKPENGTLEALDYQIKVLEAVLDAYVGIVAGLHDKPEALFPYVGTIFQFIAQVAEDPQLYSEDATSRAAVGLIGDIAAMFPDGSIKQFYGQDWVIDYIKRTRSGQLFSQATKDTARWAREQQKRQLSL
T2 sequence (looked up) 2: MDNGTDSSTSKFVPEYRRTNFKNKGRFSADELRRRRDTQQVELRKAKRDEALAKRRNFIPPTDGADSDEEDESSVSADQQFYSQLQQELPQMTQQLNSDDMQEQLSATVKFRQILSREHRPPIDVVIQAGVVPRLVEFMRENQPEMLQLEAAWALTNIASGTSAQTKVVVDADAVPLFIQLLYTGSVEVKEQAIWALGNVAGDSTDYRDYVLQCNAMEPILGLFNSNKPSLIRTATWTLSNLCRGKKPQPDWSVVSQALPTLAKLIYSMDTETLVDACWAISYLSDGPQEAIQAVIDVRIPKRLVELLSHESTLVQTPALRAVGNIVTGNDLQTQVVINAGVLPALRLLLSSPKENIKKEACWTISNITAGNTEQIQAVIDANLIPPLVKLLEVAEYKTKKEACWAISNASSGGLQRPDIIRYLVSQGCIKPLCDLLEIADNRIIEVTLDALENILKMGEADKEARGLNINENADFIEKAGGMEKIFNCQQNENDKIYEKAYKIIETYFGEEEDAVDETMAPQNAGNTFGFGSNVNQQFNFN

[2] = biological target: Nup2p (construct of the data-not-shown experiments not stated) (S. cerevisiae, UniProt P32499 1-720); test: radioligand binding
Sequence of Nup2p (construct of the data-not-shown experiments not stated) (P32499 whole entry): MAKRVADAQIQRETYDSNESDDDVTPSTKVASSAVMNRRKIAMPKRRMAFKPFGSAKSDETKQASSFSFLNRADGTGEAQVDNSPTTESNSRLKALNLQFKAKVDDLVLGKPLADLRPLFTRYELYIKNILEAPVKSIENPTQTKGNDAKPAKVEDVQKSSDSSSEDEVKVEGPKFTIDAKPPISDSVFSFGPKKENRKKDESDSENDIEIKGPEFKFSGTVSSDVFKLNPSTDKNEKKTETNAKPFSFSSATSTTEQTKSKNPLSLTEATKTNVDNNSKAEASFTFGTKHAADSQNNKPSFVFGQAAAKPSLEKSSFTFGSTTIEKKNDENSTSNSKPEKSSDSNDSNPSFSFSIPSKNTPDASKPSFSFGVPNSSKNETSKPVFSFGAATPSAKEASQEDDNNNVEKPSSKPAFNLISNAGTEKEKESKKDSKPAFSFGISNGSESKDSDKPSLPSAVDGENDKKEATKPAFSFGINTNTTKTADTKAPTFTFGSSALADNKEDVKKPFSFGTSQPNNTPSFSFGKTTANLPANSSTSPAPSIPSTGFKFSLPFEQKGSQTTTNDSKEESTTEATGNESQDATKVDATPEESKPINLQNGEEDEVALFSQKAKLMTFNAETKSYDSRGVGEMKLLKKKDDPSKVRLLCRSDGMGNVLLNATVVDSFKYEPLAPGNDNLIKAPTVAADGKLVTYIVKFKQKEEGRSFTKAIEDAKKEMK

B1: Prp20p (natural protein)
chain: MVKRTVATNGDASGAHRAKKMSKTHASHIINAQEDYKHMYLSVQPLDIFCWGTGSMCELGLGPLAKNKEVKRPRLNPFLPRDEAKIISFAVGGMHTLALDEESNVWSWGCNDVGALGRDTSNAKEQLKDMDADDSSDDEDGDLNELESTPAKIPRESFPPLAEGHKVVQLAATDNMSCALFSNGEVYAWGTFRCNEGILGFYQDKIKIQKTPWKVPTFSKYNIVQLAPGKDHILFLDEEGMVFAWGNGQQNQLGRKVMERFRLKTLDPRPFGLRHVKYIASGENHCFALTKDNKLVSWGLNQFGQCGVSEDVEDGALVTKPKRLALPDNVVIRSIAAGEHHSLILSQDGDLYSCGRLDMFEVGIPKDNLPEYTYKDVHGKARAVPLPTKLNNVPKFKSVAAGSHHSVAVAQNGIAYSWGFGETYAVGLGPFEDDTEVPTRIKNTATQDHNIILVGCGGQFSVSGGVKLSDEDAEKRADEMDD
**Q.** Does B1 bind (GST–Nup60p)?
**A.** Result: binds

B2: GST–Nup60p (aa 1–187) (domain or fragment, S. cerevisiae, UniProt P39705 1-187, looked up)
chain: MHRKSLRRASATVPSAPYRKQIISNAHNKPSLFSKIKTFFTQKDSARVSPRNNVANKQPRNESFNRRISSMPGGYFHSEISPDSTVNRSVVVSAVGEARNDIENKEEEYDETHETNISNAKLANFFSKKGNEPLSEIEIEGVMSLLQKSSKSMITSEGEQKSAEGNNIDQSLILKESGSTPISISNA
**Q.** Does B2 bind (Kap95p (recombinant))?
**A.** Result: binds

B3: GST–Nup60p (aa 188–388) (domain or fragment, S. cerevisiae, UniProt P39705 188-388, looked up)
chain: PTFNPKYDTSNASMNTTLGSIGSRKYSFNYSSLPSPYKTTVYRYSAAKKIPDTYTANTSAQSIASAKSVRSGVSKSAPSKKISNTAAALVSLLDENDSKKNNAASELANPYSSYVSQIRKHKRVSPNAAPRQEISEEETTVKPLFQNVPEQGEEPMKQLNATKISPSAPSKDSFTKYKPARSSSLRSNVVVAETSPEKKDG
**Q.** Does B3 bind (Kap95p (recombinant))?
**A.** Result: binds

B4: GST–Nup60p (aa 389–539) (domain or fragment, S. cerevisiae, UniProt P39705 389-539, looked up)
chain: GDKPPSSAFNFSFNTSRNVEPTENAYKSENAPSASSKEFNFTNLQAKPLVGKPKTELTKGDSTPVQPDLSVTPQKSSSKGFVFNSVQKKSRSNLSQENDNEGKHISASIDNDFSEEKAEEFDFNVPVVSKQLGNGLVDENKVEAFKSLYTF
**Q.** Does B4 bind [1]?
**A.** Result: binds

B5: Kap60p (recombinant) (natural protein, S. cerevisiae, UniProt Q02821 1-542, looked up)
chain: MDNGTDSSTSKFVPEYRRTNFKNKGRFSADELRRRRDTQQVELRKAKRDEALAKRRNFIPPTDGADSDEEDESSVSADQQFYSQLQQELPQMTQQLNSDDMQEQLSATVKFRQILSREHRPPIDVVIQAGVVPRLVEFMRENQPEMLQLEAAWALTNIASGTSAQTKVVVDADAVPLFIQLLYTGSVEVKEQAIWALGNVAGDSTDYRDYVLQCNAMEPILGLFNSNKPSLIRTATWTLSNLCRGKKPQPDWSVVSQALPTLAKLIYSMDTETLVDACWAISYLSDGPQEAIQAVIDVRIPKRLVELLSHESTLVQTPALRAVGNIVTGNDLQTQVVINAGVLPALRLLLSSPKENIKKEACWTISNITAGNTEQIQAVIDANLIPPLVKLLEVAEYKTKKEACWAISNASSGGLQRPDIIRYLVSQGCIKPLCDLLEIADNRIIEVTLDALENILKMGEADKEARGLNINENADFIEKAGGMEKIFNCQQNENDKIYEKAYKIIETYFGEEEDAVDETMAPQNAGNTFGFGSNVNQQFNFN
**Q.** For B5, which Kd [2] is on record?
**A.** Its Kd is roughly 0.2 nM.
